{"source": "paper PMC7618375", "about": "(2024)", "binders": {"B1": {"name": "MPP8 chromodomain (CD, residues 55-116) (domain or fragment)", "chain": "GEDVFEVEKILDMKTEGGKVLYKVRWKGYTSDDDTWEPEIHLEDCKEVLLEFRKKIAENKAK"}}, "target": "SETDB1 peptide trimethylated at K1178 (human (by the printed UniProt entry), UniProt Q15047, trimethyl-lysine at 1178)", "experiment": "ITC", "data": [{"binder": "B1", "values": [{"measurement": "Kd", "result": "> 80", "unit": "µM"}]}]}
